Legend:
[1] = target: 6xHis-AtSUMO1-eGFP
[2] = target: 6xHis-AtSUMO2-eGFP
[3] = target: 6xHis-T-SUMO-eGFP
[4] = target: 6xHis-hSUMO-1-eGFP
[5] = target: 6xHis-hSUMO-3-X-eGFP, X = A
[6] = target: 6xHis-hSUMO-3-X-eGFP, X = C
[7] = target: 6xHis-hSUMO-3-X-eGFP, X = D
[8] = target: 6xHis-hSUMO-3-X-eGFP, X = E
[9] = target: 6xHis-hSUMO-3-X-eGFP, X = F
[10] = target: 6xHis-hSUMO-3-X-eGFP, X = G
[11] = target: 6xHis-hSUMO-3-X-eGFP, X = H
[12] = target: 6xHis-hSUMO-3-X-eGFP, X = I
[13] = target: 6xHis-hSUMO-3-X-eGFP, X = K
[14] = target: 6xHis-hSUMO-3-X-eGFP, X = L
[15] = target: 6xHis-hSUMO-3-X-eGFP, X = N
[16] = target: 6xHis-hSUMO-3-X-eGFP, X = P
[17] = target: 6xHis-hSUMO-3-X-eGFP, X = Q
[18] = target: 6xHis-hSUMO-3-X-eGFP, X = R
[19] = target: 6xHis-hSUMO-3-X-eGFP, X = S
[20] = target: 6xHis-hSUMO-3-X-eGFP, X = T
[21] = target: 6xHis-hSUMO-3-X-eGFP, X = V
[22] = target: 6xHis-hSUMO-3-X-eGFP, X = W
[23] = target: 6xHis-hSUMO-3-X-eGFP, X = Y
[24] = target: 6xHis-hSUMO-3-eGFP
[25] = target: 6xHis-ySmt3-eGFP

B1: human SENP2 (hSENP2) SUMO protease catalytic domain (protein)
chain: MASLLELTEDMEKEISNALGHGPQDEILSSAFKLRITRGDIQTLKNYHWLNDEVINFYMNLLVERNKKQGYPALHVFSTFFYPKLKSGGYQAVKRWTKGVNLFEQEIILVPIHRKVHWSLVVIDLRKKCLKYLDSMGQKGHRICEILLQYLQDESKTKRNSDLNLLEWTHHSMKPHEIPQQLNGSDCGMFTCKYADYISRDKPITFTQHQMPLFRKKMVWEILHQQLLAAALEHHHHHH
activity level (grade) [1]: +
cleavage, 2-fold enzyme dilution series, SDS-PAGE [1]: Both hSENP2 and yUlp1 cleaved the AtSUMO1 fusion similarly
activity level (grade) [2]: +
activity level (grade) [3]: +
activity level (grade) [4]: ++
cleavage, 2-fold enzyme dilution series, SDS-PAGE; fold against yUlp1 [4]: hSENP2 was able to cleave hSUMO-1 and ySmt3 fusions somewhat more effectively (about 2-fold) than yUlp1
cleavage, time course, SDS-PAGE [4]: both enzymes cleaving hSUMO-1-eGFP poorly
Percent cleavage, enzyme:substrate 1:100 [5]: 99.6%
Percent cleavage, enzyme:substrate 1:1000 [5]: 92.5%
Percent cleavage, enzyme:substrate 1:100 [6]: 100%
Percent cleavage, enzyme:substrate 1:1000 [6]: 98.5%
Percent cleavage, enzyme:substrate 1:100 [7]: 99.5%
Percent cleavage, enzyme:substrate 1:1000 [7]: 69.8%
Percent cleavage, enzyme:substrate 1:100 [8]: 100%
Percent cleavage, enzyme:substrate 1:1000 [8]: 92.2%
Percent cleavage, enzyme:substrate 1:100 [9]: 100%
Percent cleavage, enzyme:substrate 1:1000 [9]: 98.9%
Percent cleavage, enzyme:substrate 1:100 [10]: 100%
Percent cleavage, enzyme:substrate 1:1000 [10]: 98.9%
Percent cleavage, enzyme:substrate 1:100 [11]: 100%
Percent cleavage, enzyme:substrate 1:1000 [11]: 98.4%
Percent cleavage, enzyme:substrate 1:100 [12]: 98.4%
Percent cleavage, enzyme:substrate 1:1000 [12]: 56.2%
Percent cleavage, enzyme:substrate 1:100 [13]: 100%
Percent cleavage, enzyme:substrate 1:1000 [13]: 92.8%
Percent cleavage, enzyme:substrate 1:100 [14]: 98.6%
Percent cleavage, enzyme:substrate 1:1000 [14]: 75.2%
Percent cleavage, enzyme:substrate 1:100 [15]: 96.2%
Percent cleavage, enzyme:substrate 1:1000 [15]: 98.3%
Percent cleavage, enzyme:substrate 1:100 [16]: 0%
Percent cleavage, enzyme:substrate 1:1000 [16]: 0%
Percent cleavage, enzyme:substrate 1:100 [17]: 95.9%
Percent cleavage, enzyme:substrate 1:1000 [17]: 66.7%
Percent cleavage, enzyme:substrate 1:100 [18]: 99.7%
Percent cleavage, enzyme:substrate 1:1000 [18]: 98.7%
Percent cleavage, enzyme:substrate 1:100 [19]: 99.6%
Percent cleavage, enzyme:substrate 1:1000 [19]: 99.1%
Percent cleavage, enzyme:substrate 1:100 [20]: 99%
Percent cleavage, enzyme:substrate 1:1000 [20]: 82%
Percent cleavage, enzyme:substrate 1:100 [21]: 100%
Percent cleavage, enzyme:substrate 1:1000 [21]: 99.8%
Percent cleavage, enzyme:substrate 1:100 [22]: 100%
Percent cleavage, enzyme:substrate 1:1000 [22]: 99.4%
Percent cleavage, enzyme:substrate 1:100 [23]: 100%
Percent cleavage, enzyme:substrate 1:1000 [23]: 98.7%
Kcat [24]: Kcat = 0.33
Kcat, fold difference against yUlp1 [24]: about 12-fold difference in Kcat
Km [24]: Km = 2.41 mM
Percent cleavage, enzyme:substrate 1:100 [24]: 99.4%
Percent cleavage, enzyme:substrate 1:1000 [24]: 95.4%
activity level (grade) [24]: +++
cleavage, 2-fold enzyme dilution series, SDS-PAGE; fold against yUlp1 [24]: hSENP2 was able to cleave hSUMO-3-eGFP at least 4-fold better than an identical amount of yUlp1
cleavage, time course, SDS-PAGE [24]: providing nearly complete cleavage within 2 hrs.
Kcat [25]: Kcat = 0.75
Kcat, fold difference against yUlp1 [25]: about 2-fold difference in Kcat
Km [25]: Km = 2.72 mM
activity level (grade) [25]: +++++
cleavage, 2-fold enzyme dilution series, SDS-PAGE; fold against yUlp1 [25]: hSENP2 was able to cleave hSUMO-1 and ySmt3 fusions somewhat more effectively (about 2-fold) than yUlp1
cleavage, time course, SDS-PAGE [25]: both enzymes cleaving hSUMO-1-eGFP poorly and ySmt3-eGFP well
